Assays:
fibronectin [1] = biological target: fibronectin (UniProt P02751); test: SPR; Biacore 3000; fibronectin on a CM5 chip; 0-500 nM untagged OspC variants injected at 10 μl/min, 25°C; 1:1 Langmuir model; KD from the average koff divided by kon of each run
fibronectin [2] = biological target: fibronectin (UniProt P02751); test: ELISA; wells coated with 10 μg/ml purified fibronectin in 0.05 M Na2CO3 pH 9.0; 0.03125-2 μM GST or GST-tagged OspC variants, 1 hr at ambient temperature; goat anti-GST and HRP-conjugated anti-goat IgG; estimated KD from a fit of OD405

Sequence of fibronectin (P02751 32-2477): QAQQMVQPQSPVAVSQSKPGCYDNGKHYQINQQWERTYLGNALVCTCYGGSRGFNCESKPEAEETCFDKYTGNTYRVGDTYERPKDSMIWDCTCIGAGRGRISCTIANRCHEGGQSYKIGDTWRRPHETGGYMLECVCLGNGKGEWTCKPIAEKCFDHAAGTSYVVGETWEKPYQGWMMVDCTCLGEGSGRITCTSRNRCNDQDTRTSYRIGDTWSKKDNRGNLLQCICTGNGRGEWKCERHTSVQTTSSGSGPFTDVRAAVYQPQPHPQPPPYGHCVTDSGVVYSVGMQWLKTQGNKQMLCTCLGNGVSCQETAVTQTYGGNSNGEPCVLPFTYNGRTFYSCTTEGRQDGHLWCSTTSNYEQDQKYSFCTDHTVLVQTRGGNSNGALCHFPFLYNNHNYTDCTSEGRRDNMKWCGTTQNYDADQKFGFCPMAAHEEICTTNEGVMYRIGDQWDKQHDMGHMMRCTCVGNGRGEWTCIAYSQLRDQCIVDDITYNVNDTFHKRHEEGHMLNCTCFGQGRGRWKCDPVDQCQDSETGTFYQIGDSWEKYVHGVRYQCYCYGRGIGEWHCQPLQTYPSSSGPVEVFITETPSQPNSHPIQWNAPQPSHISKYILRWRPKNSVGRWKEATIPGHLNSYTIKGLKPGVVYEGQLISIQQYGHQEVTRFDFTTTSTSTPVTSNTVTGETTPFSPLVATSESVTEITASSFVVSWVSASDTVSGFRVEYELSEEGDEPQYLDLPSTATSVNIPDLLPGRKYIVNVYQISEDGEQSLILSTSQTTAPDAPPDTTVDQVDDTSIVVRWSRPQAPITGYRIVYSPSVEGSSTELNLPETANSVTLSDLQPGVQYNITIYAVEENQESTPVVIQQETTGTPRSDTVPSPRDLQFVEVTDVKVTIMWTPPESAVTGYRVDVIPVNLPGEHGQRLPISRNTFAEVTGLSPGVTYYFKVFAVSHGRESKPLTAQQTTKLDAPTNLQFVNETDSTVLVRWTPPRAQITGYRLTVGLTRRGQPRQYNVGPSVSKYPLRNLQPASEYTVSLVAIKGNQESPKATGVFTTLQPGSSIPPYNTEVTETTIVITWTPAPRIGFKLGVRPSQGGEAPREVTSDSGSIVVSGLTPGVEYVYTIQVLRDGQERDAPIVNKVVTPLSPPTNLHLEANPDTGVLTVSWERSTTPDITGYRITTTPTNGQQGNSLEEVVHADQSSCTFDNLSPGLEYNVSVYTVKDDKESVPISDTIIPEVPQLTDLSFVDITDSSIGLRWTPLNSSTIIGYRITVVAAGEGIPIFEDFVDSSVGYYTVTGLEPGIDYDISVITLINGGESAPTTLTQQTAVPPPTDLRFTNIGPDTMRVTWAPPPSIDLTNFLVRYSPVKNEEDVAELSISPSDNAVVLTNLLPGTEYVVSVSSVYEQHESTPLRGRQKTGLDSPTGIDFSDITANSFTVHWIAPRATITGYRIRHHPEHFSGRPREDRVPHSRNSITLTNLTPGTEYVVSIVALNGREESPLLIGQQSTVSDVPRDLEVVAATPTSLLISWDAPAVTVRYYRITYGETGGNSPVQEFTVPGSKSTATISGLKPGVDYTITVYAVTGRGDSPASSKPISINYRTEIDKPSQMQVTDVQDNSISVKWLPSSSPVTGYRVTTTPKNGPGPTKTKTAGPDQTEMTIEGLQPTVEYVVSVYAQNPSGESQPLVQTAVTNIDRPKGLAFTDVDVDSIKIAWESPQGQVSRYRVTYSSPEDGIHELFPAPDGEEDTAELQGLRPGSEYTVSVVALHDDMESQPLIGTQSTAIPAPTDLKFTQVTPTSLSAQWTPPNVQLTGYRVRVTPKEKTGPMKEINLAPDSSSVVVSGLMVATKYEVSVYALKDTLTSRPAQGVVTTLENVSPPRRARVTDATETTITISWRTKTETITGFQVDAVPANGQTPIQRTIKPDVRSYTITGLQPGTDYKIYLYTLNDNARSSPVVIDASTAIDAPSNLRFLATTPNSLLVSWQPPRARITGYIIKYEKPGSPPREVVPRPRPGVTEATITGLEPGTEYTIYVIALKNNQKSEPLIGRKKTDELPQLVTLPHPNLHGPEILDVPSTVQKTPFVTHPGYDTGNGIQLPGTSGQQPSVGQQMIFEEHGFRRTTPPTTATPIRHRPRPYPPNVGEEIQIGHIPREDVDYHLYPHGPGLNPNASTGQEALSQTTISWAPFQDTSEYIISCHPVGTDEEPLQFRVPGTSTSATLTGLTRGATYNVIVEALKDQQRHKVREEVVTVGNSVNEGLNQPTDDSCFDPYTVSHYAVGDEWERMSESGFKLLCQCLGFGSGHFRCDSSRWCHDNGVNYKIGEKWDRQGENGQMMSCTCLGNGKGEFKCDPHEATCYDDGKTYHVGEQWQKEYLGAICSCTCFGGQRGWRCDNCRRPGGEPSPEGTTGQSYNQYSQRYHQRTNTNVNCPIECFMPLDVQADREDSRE

Substance	Kd (fibronectin [1])	koff (fibronectin [1])	kon (fibronectin [1])	Kd (fibronectin [2])
OspC297, untagged (natural protein)	1750 nM	0.06 s⁻¹	36800 M⁻¹ s⁻¹	
GST-OspC_(N40-D10/E9) (natural protein; other documents disagree on this pair)				350 nM

Source: publication PMC7255614
